# Data taken from US20050233963A1.
# Molecular target: hsc70 (constitutively expressed form of hsp70) (UniProt P11142)
# Assay: cell-based or functional assay
# Chain of hsc70 (constitutively expressed form of hsp70) (P11142 whole entry): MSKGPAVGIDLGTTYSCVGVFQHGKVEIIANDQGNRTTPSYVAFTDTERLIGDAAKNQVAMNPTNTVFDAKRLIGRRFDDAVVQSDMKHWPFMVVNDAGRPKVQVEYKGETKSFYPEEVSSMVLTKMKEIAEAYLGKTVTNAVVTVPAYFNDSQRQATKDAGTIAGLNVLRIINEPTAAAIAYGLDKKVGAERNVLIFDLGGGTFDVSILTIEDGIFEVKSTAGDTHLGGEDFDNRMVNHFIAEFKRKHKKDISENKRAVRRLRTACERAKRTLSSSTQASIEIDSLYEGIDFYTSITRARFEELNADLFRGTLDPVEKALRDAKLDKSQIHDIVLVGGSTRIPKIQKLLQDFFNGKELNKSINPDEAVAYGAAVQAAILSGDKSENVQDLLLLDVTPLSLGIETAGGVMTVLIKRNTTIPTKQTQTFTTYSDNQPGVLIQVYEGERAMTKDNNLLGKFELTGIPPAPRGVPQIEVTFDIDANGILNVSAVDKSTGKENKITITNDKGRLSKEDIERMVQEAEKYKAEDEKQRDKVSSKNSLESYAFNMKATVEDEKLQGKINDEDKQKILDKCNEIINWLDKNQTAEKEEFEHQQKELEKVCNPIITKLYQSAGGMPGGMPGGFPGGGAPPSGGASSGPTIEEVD
substance,measurement,value
His-UBP (histidine tagged-UBP) (from UniProt O43765 1-313),decrease in hs70-dependent refolding of luciferase,30%
